Key:
[1] = target: 酵母由来組換えhGM−CSF(Leukine Berlex) (human); test: SPR (Biacore), antibody captured through protein G on the chip, rhGM-CSF injected
[2] = target: 大腸菌由来組換えhGM−CSF(Peprotech) (human); test: as above

Kd [1] [nM] | Kd [2] [nM] | Binder
0.23 | 0.15 | EV1018 (antibody, V domains shown) VH: QVQLVESGGGMVQPGMPLRLSCVASGFTFSSYGMHWVRQAPGKGLEWVALTYHHGNRKFYADSVRGRFTISRDNSNNTLYLQMTSLRAEDTAVYFCARESMGAINDNWGQGTLVIVSS VL: QSALTQETSVSGTVGQKVTLSCIGNNNNIGSHAVGWYQQISRGAPKMVLFGRSPPSGVPDRFSGSKSGTTASLIISGLQPEDEADYYCSTWDSSLSAVVFGGGTKLTVLR
0.36 | 0.15 | EV1019 (antibody, V domains shown) VH: QAQLVESGGGVVKPGGSLRLSCISSKFTFSSHAMHWVRQAPGKGLEWVAVIWHDGSKKYYADSVKGRFSVSRDNSKNTLFLQMDSLRAEDTAVYFCGKEWVGGTCDSWGQGTLVIVSS VL: QPALTQEASVSGTVGQTVTLLCSGNSSNIGSYAVGWYQQISRGAPKIVVFGKSPASGIPDRFSGSKSGTTASLLVSGLQPEDEADYYCSTWDSRLSAVLFGGGTKLTVLR
1.2 | 0.93 | EV1007 (antibody, V domains shown) VH: QVHLVQSGSELKKPGASVKVSCKASGYSFSRYGIKWVRQAPGQGLEWMGWINTRSGVPAYAQGFTGRFVFSLDTSVDTAFLEISSLKTEDTGIYYCATRPPRFYDKTEYWEDGFDVWGRGTLVTVSS VL: QSVLTQPPSASGTPGQSVNISCSGSSSNIGNSYVYWYQQLPGTAPKLLIYRNNRRPSGVPDRFSGSKSDTSASLAISGLRSEDEADYYCATWDDSLSGRLFGGGTKLTVL
0.23 | 0.095 | EV1003 (antibody, V domains shown) VH: LVQLVQSEAEVKKPGASVRISCRTSGYIFPTFALHWVRQAPGQSLEWVGSINTASGKTKFSTKFQDRLTLSSNTSATTVYMDLSGLTLDDTALYYCARDRFQNIMATILDVWGQGTLVTVSS VL: DIVLTQSPGTLSLSPGERVTVSCRASHRVSSNYLAWYQQRPGQSPRLLIFGASNRATGVPDRFSGSGSGTDFALTISRLEPDDFAVYYCQQYASSPVTFGGGTKLEIK
